Assay results from US20200347143A1 (GLENMARK PHARMACEUTICALS S A, published 2020).
Numbering of substitutions follows the chain as printed.

T1: human OX40 on cells (human, UniProt P43489 29-277)
T1 sequence (looked up): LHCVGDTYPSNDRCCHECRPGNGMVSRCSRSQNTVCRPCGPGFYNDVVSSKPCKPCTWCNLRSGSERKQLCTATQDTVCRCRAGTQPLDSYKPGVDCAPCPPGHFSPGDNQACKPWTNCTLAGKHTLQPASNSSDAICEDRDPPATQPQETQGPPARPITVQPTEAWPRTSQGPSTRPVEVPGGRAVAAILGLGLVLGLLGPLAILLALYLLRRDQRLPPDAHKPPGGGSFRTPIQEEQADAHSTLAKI

T2: recombinant human OX40-his protein (human, UniProt P43489 29-214)
T2 construct: Secreted via the native signal peptide, which lies within residues 1-214; also called Human OX40R-His; histidine tagged human OX40 receptor extracellular domain
T2 sequence: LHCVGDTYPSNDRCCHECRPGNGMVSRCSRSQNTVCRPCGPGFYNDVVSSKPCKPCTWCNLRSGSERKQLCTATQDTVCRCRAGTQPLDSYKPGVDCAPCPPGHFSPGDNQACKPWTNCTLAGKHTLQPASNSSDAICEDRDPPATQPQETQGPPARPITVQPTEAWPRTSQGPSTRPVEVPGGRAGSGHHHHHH

B1: 2H6_hzG3v9_8 (bispecific antibody, human IgG1, kappa, L234A L235A)
heavy: not shown
light: DIQLTQSPSSLSASVGDRVTITCRASESVDNYGISFMNWFQQKPGKAPKLLIYAASNQKSGVPSRFSGSGSGTDFTLTISSLQPEDFATYFCQQSKEVPLTFGQGTKVEIKRTVAAPSVFIFPPSDEQLKSGTASVVCLLNNFYPREAKVQWKVDNALQSGNSQESVTEQDSKDSTYSLSSTLTLSKADYEKHKVYACEVTHQGLSSPVTKSFNRGEC
B2: Tetra-21 (bispecific antibody, human IgG1, kappa, L234A L235A)
heavy 1: QVQLVQSGAEVKKPGASVKVSCKASGYTFTRYYMHWVRQAPGQGLEWMGWIYPGEGSTKYAQKFQGRVTMTRDTSISTAYMELSRLRSDDTAVYYCAREYGNYDYWGQGTLVTVSSASTKGPSVFPLAPSSKSTSGGTAALGCLVKDYFPEPVTVSWNSGALTSGVHTFPAVLQSSGLYSLSSVVTVPSSSLGTQTYICNVNHKPSNTKVDKKVEPKSCDKTHTCPPCPAPEAAGGPSVFLFPPKPKDTLMISRTPEVTCVVVDVSHEDPEVQFKWYVDGVEVHNAKTKPREEQYNSTFRVVSVLTVLHQDWLNGKEYKCKVSNKALPAPIEKTISKTKGQPREPAVYTLPPSREEMTKNQVKLVCLVTGFYPSDIAVEWESSGQPENNYYTTPPMLDSDGSFSLVSWLNVDKSRWQQGNIFSCSVMHEALHNRFTQKSLSLSPGGGGGTEVQLVESGGGLVQPGGSLRLSCAVSGYSITSDYAWNWIRQAPGKCLEWMGYISYSGSTAYNPSLKSRITISRDTSKNTFYLQMSSLRAEDTAVYYCARGPYNYLAYWGQGTLVTVSSGGGGSGGGGSGGGGSDIQLTQSPSSLSASVGDRVTITCRASESVDNYGISFMNWFQQKPGKAPKLLIYAASNQKSGVPSRFSGSGSGTDFTLTISSLQPEDFATYFCQQSKEVPLTFGCGTKVEIL
heavy 2: EVQLVESGGGLVQPGGSLRLSCAVSGYSITSDYAWNWIRQAPGKCLEWMGYISYSGSTAYNPSLKSRITISRDTSKNTFYLQMNSLRAEDTAVYYCARGPYNYLAYWGQGTLVTVSSGGGGSGGGGSGGGGSDIQLTQSPSSLSASVGDRVTITCRASESVDNYGISFMNWFQQKPGKAPKLLIYAASNQKSGVPSRFSGSGSGTDFTLTISSLQPEDFATYFCQQSKEVPLTFGCGTKVEIKRTGGGGTDKTHTCPPCPAPEAAGGPSVFLFPPKPKDTLMISRTPEVTCVVVDVSHEDPEVKFNWYVDGVEVHNAKTKPREEQYNSTYRVVSVLTVLHQDWLNGKEYKCKVSNKALPAPIEKTISKAKGQPREPEVATFPPSRDELTKNQVTLVCLVTGFYPSDIAVEWESNGQPENNYKTDPPLLESQGSFALSSRLRVDKSRWQQGNVFSCSVMHEALHNHYTQKSLSLSPGGGGGTQVQLVQSGAEVKKPGASVKVSCKASGYTFTRYYMHWVRQAPGQGLEWMGWIYPGEGSTKYAQKFQGRVTMTRDTSISTAYMELSRLRSDDTAVYYCAREYGNYDYWGQGTLVTVSSASTKGPSVFPLAPSSKSTSGGTAALGCLVKDYFPEPVTVSWNSGALTSGVHTFPAVLQSSGLYSLSSVVTVPSSSLGTQTYICNVNHKPSNTKVDKKVEPKSC
light: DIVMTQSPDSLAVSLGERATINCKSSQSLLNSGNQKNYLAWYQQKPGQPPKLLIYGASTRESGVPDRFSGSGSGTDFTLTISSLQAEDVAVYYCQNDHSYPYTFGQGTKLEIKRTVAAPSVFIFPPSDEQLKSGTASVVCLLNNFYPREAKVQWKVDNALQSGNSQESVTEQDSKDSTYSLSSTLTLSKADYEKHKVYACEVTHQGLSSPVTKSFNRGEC
B3: Tri-8 (bispecific antibody, human IgG1, kappa, L234A L235A)
heavy 1: B2 heavy 1
heavy 2: QVQLVQSGAEVKKPGASVKVSCKASGYTFTRYYMHWVRQAPGQGLEWMGWIYPGEGSTKYAQKFQGRVTMTRDTSISTAYMELSRLRSDDTAVYYCAREYGNYDYWGQGTLVTVSSASTKGPSVFPLAPSSKSTSGGTAALGCLVKDYFPEPVTVSWNSGALTSGVHTFPAVLQSSGLYSLSSVVTVPSSSLGTQTYICNVNHKPSNTKVDKKVEPKSCDKTHTCPPCPAPEAAGGPSVFLFPPKPKDTLMISRTPEVTCVVVDVSHEDPEVKFNWYVDGVEVHNAKTKPREEQYNSTYRVVSVLTVLHQDWLNGKEYKCKVSNKALPAPIEKTISKAKGQPREPEVATFPPSRDELTKNQVTLVCLVTGFYPSDIAVEWESNGQPENNYKTDPPLLESQGSFALSSRLRVDKSRWQQGNVFSCSVMHEALHNHYTQKSLSLSPGK
light: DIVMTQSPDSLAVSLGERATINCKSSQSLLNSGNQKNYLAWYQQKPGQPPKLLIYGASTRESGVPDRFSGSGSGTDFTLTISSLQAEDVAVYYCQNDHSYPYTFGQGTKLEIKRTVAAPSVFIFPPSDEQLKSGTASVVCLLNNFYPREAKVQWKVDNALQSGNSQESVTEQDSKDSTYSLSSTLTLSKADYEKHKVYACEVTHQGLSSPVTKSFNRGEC
B4: 1A7 IgG1 (antibody, V domains shown)
VH: EVQLVQSGAEVKKPGASVKVSCKASGYTFTDSYMSWVRQAPGQGLEWIGDMYPDNGDSSYNQKFRERVTITRDTSTSTAYLELSSLRSEDTAVYYCVLAPRWYFSVWGQGTLVTVSS
VL: DIQMTQSPSSLSASVGDRVTITCRASQDISNYLNWYQQKPGKAPKLLIYYTSRLRSGVPSRFSGSGSGTDFTLTISSLQPEDFATYYCQQGHTLPPTFGQGTKVEIKR
B5: Humanized 7H11 VH1/VL1 IgG1 (antibody, V domains shown)
VH: QVQLVQSGAEVKKPGASVKVSCKASGYTFTRYYMHWVRQAPGQGLEWMGWIYPGDGSTKYSQKFQGRVTITRDTSASTAYMELSSLRSEDTAVYYCAREYGNYDYWGQGTLVTVSS
VL: DIVMTQSPDSLAVSLGERATINCKSSQSLLNSGNQKNYLAWYQQKPGQPPKLLIYGASTRESGVPDRFSGSGSGTDFTLTISSLQAEDVAVYYCQNDHSYPYTFGQGTKLEIKR
notes: human IgG1, kappa; also called Humanized VH1-VL1 IgG1
B6: Humanized 7H11 VH2/VL1 IgG1 (antibody, V domains shown)
VH: B5 VH with K59N, S61A, I70M, A76I, S85R, E89D
VL: B5 VL
notes: human IgG1, kappa; also called Humanized VH2-VL1 IgG1
B7: Humanized 7H11 VH3/VL1 IgG1 (antibody, V domains shown)
VH: B5 VH with W50I, K59S, S61A, I70M, A76T, A79V
VL: B5 VL
notes: human IgG1, kappa; also called Humanized VH3-VL1 IgG1
B8: 11D4 IgG2 (antibody, V domains shown)
VH: EVQLVESGGGLVQPGGSLRLSCAASGFTFSSYSMNWVRQAPGKGLEWVSYISSSSSTIDYADSVKGRFTISRDNAKNSLYLQMNSLRDEDTAVYYCARESGWYLFDYWGQGTLVTVSS
VL: DIQMTQSPSSLSASVGDRVTITCRASQGISSWLAWYQQKPEKAPKSLIYAASSLQSGVPSRFSGSGSGTDFTLTISSLQPEDFATYYCQQYNSYPPTFGGGTKVEIKR

Tests used:
[1] = molecular target: T1, human OX40 on cells; experiment: cell-based or functional assay
[2] = molecular target: T3, human OX40-Fc (human); experiment: ELISA on coated human OX40-Fc, antibody 10 µg/ml
T3 construct: also called recombinant human OX40-Fc; human OX40 (HHHH)
Procedure: (§1) These constructs were expressed in HEK293-EBNA1 cells and purified using protein A. Then, human and rat OX40-Fc were tested in ELISA and Biacore to determine antibody cross-reactivity. For the ELISA, 96 well-microtiter plates (Costar USA, distributor VWR AG, Nyon, Switzerland) were coated with 100 μl of recombinant human or rat OX40-Fc at 2 μg/ml in PBS. Plates were incubated overnight at 4° C. and were then blocked with PBS 2% BSA (Bovine Serum Albumine, PAA Laboratories, Pasching, Austria) at room temperature (RT) for one hour. The blocking solution was removed and the purified antibodies were added at 10 μg/ml in PBS 2% BSA. The plates were incubated at RT for 1 hour, then washed 5 times with PBS 0.01% Tween-20 (Sigma-Aldrich Chemie GmbH, Buchs, Switzerland). […] Plates were incubated for 1 hour at RT, washed 5 times with PBS 0.01% Tween-20 and the TMB substrate (Bio-rad Laboratories AG, Reinach, Switzerland) was added to the plates and the reaction stopped after 5 minutes by adding H₂SO₄. Absorbance was then read at 450 nm by a microplate reader (Biotek, USA; distributor: WITTEC AG, Littau, Switzerland). Biacore experiments were specifically conducted with Hexa-hzG3V9 and Hexa-hz1D10v1 which are dAb-Fc fusion proteins. […] Binding of human and cyno OX40-Fc molecules was determined by successively injecting these proteins on the 4 flow-paths (flow-path 1 and 3 being used as references) at a concentration of 200 nM and a flow rate of 30 uL/min for 240 seconds. Regeneration between the two injections was done using 3M MgCl2, at 30 uL/min for 60 seconds. Using these two approaches, human/rat OX40 binding was assessed (table 16).

[3] = molecular target: T2, recombinant human OX40-his protein; experiment: SPR (BIAcore 2000), antibody captured on Protein A, OX40-his injected
Procedure: SPR analysis was used to measure the association and dissociation rate constants for the binding kinetics of the anti-OX40 antibodies. The binding kinetics were measured on a BIAcore 2000 (BIAcore-GE Healthcare Europe GmbH, Glattbrugg, Switzerland) at room temperature and analyzed with the BiaEvaluation software (v4.1, GE Healthcare Europe GmbH).
Measurements were performed on CM5 sensor chips (Biacore 2000, GE Healthcare Europe GmbH, Cat. No: BR-1000-14) individually coupled with Protein A (Sigma, Buchs, Switzerland, Cat. No: P7837) using a commercial amine coupling kit (GE Healthcare Europe GmbH, Cat. No: BR-1000-50). 200-600 RUs of humanized antibody were captured. Dilution series of OX40-his were injected at a flow rate of 10 μl/min in HBS-EP buffer (GE Healthcare Europe GmbH, Cat. No: BR1001-88). After each binding event, the surface was regenerated with 10 μl of glycine buffer pH 1.5. Experimental data were processed using a 1:1 Langmuir model with local Rmax. The dissociation time was about 7 min. Measurements were performed in duplicates or triplicates and included zero-concentration samples for referencing. Both Chit and residual values were used to evaluate the quality of a fit between the experimental data and individual binding models.

[4] = molecular target: T1, human OX40 on cells; experiment: flow cytometry on HPB-ALL cells, 10 µg/ml antibody
Procedure: HPB-ALL cells (DSMZ, Braunschweig, Germany, Cat. No: ACC483) were used as a human OX40 positive cell line for FACS staining. HPB-ALL were maintained in RPMI 1640 supplemented with 10% FCS and 100 U/ml Penicillin and 100 μg/ml streptomycin. 4×10e5 HPB-ALL cells in FACS buffer (PBS supplemented with 1% BSA and 0.1% sodium azide) were incubated for 45 min on ice with the anti-OX40 antibody of interest kept at a concentration of 10 μg/ml An irrelevant human IgG1 was used as an isotype control; the cells were incubated with a 1/200 dilution of anti-Human Fc-PE (EBioscience, Vienna, Austria) for 45 min on ice. Cells were then washed again and resuspended in 200 μl FACS buffer. The relative mean fluorescence of each sample was measured on a FACSCalibur instrument (BD Biosciences, Allschwil, Switzerland).
A first set of 16 humanized antibodies of human gamma one isotype were prepared. These first humanized candidates were assessed for transient expression in HEK293E cells and binding to HB-ALL cell by flow cytometry (Table 7).

[5] = molecular target: rat OX40-Fc (rat); experiment: ELISA on coated rat OX40-Fc
Procedure: as §1

Sequence of rat OX40-Fc (rat) (chain, as listed by the source limits assumed): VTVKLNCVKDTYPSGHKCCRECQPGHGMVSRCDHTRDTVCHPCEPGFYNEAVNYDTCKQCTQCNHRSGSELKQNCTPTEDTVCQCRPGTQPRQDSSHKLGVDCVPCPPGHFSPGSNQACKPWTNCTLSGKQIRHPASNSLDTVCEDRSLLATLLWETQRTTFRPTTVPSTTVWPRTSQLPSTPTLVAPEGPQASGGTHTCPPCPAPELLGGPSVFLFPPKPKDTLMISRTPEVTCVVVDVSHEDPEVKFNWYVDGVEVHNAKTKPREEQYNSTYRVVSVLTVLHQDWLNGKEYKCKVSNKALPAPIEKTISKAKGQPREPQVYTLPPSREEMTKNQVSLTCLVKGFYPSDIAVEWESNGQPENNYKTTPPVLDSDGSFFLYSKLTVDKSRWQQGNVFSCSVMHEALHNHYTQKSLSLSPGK

% donor responder (>2), SEB assay, IL-2 release [1] [%]	Mean, normalized IL-2 release, SEB assay [1]	Kd [3] [nM]	koff [3] [s⁻¹]	kon [3] [M⁻¹ s⁻¹]	MFI [4]	further results	Binder
100	48.4						B1
8	1.32						B2
0	0.96						B3
						binding result [2]: binds	B4
		35	0.00058	16700	120		B5
		21	0.0013	58500	120		B6
		80	0.0055	62500	121		B7
18	1.87					binding result [5]: no binding (tested: 10 µg/ml)	B8
